This note sets out measurements from patent US20230037815A1 (CULLINAN THERAPEUTICS, published 2023).

The target in assay [1] is T1, mouse serum albumin (mouse, UniProt P07724 25-608).
T1 construct: also called MSA
Description: Octet HTX (ForteBio), HCAb on AHC sensor, 1:1 fit.

The target in the next assay is T2, human serum albumin (human, UniProt P02768 25-609).
T2 construct: also called HSA
The assay can be described thus: Octet HTX (ForteBio), HCAb on AHC sensor, 1:1 fit.

The target of another assay is cynomolgus serum albumin (cynomolgus, UniProt A2V9Z4 25-608). The assay can be described thus: Octet HTX (ForteBio), HCAb on AHC sensor, 1:1 fit.
Assay [2] addresses T1, mouse serum albumin. The assay can be described thus: ratio of the Octet KD for mouse serum albumin to that for human serum albumin.
For another assay, the target named is T3, human CD19 on CHO cells (human, UniProt P15391 20-556).
T3 construct: whole, on cells; also called Cells Expressing Human CD19; CHO cells overexpressing the antigen
T3 sequence (looked up): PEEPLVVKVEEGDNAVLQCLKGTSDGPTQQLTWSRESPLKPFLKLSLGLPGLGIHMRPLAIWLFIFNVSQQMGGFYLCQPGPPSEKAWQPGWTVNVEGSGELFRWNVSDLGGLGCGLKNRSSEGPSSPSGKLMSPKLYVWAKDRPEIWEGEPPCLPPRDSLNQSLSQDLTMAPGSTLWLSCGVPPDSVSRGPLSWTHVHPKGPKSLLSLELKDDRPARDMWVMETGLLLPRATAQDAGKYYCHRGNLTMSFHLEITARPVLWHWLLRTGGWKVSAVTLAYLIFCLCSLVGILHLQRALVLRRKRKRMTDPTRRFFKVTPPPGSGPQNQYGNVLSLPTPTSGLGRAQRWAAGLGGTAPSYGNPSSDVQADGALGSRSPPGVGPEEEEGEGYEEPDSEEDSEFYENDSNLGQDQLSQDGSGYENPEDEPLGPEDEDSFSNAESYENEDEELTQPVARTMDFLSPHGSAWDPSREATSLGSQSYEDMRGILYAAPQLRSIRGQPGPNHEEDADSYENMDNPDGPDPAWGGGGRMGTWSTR
Description: flow cytometry, CHO cells, 100 nM IgG. The procedure: The binding affinity of the antibodies to CD19 expressed on the cell surface was also measured. Briefly, approximately 100,000 Chinese hamster overy (CHO) cells overexpressing the antigen were washed with wash buffer and incubated with 100 μl 100 nM IgG for 15 minutes at room temperature. Cells were then washed twice with wash buffer and incubated with 100 μl of 1:100 Human-PE for 15 minutes on ice. Cells were then washed twice more with wash buffer and analyzed on a FACS Canto II analyzer (BD Biosciences).

For a further assay, the target named is T4, human CD19 (human, UniProt P15391 20-291, biotinylated in the Biacore assay of Table 11).
T4 construct: also called isolated CD19; Human CD19 Protein
T4 sequence (looked up): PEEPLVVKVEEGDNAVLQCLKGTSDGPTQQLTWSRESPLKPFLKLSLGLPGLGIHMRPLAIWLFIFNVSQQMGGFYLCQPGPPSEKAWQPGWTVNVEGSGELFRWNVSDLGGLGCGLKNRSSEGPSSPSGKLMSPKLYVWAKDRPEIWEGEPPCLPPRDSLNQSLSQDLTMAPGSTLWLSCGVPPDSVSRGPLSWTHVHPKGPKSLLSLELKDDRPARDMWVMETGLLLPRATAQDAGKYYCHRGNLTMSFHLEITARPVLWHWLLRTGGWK
Description: Octet HTX (ForteBio), IgG on AHC sensor, 1:1 fit. The procedure:
The binding affinity of the antibodies to isolated CD19 was measured by […] using a ForteBio Octet HTX system as previously described (see, e.g., Estep et al, High throughput solution-based measurement of antibody-antigen affinity and epitope binning. Mabs 5(2), 270-278 (2013)). Briefly, ForteBio affinity measurements were performed by loading IgGs on-line onto anti-hIgG Fc Capture (AHC) sensors. The sensors were equilibrated off-line in assay buffer for 30 minutes and then monitored on-line for 60 seconds for baseline establishment. The sensors with loaded IgGs were exposed to 100 nM […] for 3 minutes, and subsequently transferred to assay buffer for 3 minutes for off-rate measurement. All kinetics were analyzed using the 1:1 binding model.

T1 sequence (P07724 25-608 limits assumed): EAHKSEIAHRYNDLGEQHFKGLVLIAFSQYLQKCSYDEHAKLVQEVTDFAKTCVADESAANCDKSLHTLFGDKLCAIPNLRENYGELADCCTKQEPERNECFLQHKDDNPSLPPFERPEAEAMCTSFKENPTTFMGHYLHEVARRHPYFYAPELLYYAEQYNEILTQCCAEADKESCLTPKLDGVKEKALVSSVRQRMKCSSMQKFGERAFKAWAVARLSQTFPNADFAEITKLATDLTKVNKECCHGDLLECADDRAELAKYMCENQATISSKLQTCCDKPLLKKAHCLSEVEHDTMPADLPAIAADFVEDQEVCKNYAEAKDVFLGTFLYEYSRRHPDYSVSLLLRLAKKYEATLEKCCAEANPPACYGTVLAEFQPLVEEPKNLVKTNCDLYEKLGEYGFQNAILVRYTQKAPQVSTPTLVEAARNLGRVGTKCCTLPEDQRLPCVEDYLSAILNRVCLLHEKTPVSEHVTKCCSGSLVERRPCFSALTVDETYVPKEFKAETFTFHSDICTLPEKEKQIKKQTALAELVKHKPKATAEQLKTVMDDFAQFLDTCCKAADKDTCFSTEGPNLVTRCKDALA
Sequence of cynomolgus serum albumin (A2V9Z4 25-608 limits assumed): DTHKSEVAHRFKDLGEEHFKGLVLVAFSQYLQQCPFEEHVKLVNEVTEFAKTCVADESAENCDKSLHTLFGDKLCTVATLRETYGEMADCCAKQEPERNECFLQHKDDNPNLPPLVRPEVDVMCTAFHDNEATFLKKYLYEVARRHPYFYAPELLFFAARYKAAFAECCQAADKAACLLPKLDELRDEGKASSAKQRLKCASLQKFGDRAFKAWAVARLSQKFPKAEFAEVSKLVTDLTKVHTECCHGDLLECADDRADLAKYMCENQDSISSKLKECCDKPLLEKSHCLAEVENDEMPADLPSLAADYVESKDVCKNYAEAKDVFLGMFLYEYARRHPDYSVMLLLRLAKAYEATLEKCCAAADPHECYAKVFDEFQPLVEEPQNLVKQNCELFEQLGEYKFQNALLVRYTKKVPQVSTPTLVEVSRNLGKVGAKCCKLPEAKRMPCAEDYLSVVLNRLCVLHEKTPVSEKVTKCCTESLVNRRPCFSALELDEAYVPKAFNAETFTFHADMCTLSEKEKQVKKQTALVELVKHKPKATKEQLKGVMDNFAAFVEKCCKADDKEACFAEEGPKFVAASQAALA

B1: CNG-HSA-114 (VHH)
VHH: KVQLVESGGGLVQPGNSLRLSCAASGFTFSSFGMSWVRQAPGKGLEWVSSISGSGSDTLTADSVKGRFTISRDNSKNTLYLQMNSLRAEDTAVYYCTIGGSLVRSSQGTLVTVSS
Turning to B1, the values for the Kd with mouse serum albumin [1], in the assay with human serum albumin and with cynomolgus serum albumin were 17.5 nM, 14.7 nM and 12 nM, respectively. Also, the koff came to 0.0038 s⁻¹ in the assay with mouse serum albumin [1], 0.00221 s⁻¹ in the assay with human serum albumin and 0.00173 s⁻¹ with cynomolgus serum albumin. Moreover, in the assay with mouse serum albumin [2], the “Ratio of MSA-KD to HSA-KD” value was 1.2.

B2: CNG-HSA-120 (VHH)
VHH: KVQLVESGGGLVQPGGSLRLSCAASGFTFSSFGMSWVRQAPGKGPEWVSSISGSGSDTLYADSVKGRFTISRDNSKNTLYLQMNSLRPEDTAVYYCTIGGSLKQSSQGTLVTVSS
B2: the figures for the Kd with mouse serum albumin [1], in the assay with human serum albumin and in the assay with cynomolgus serum albumin were 4.32 nM, 3.15 nM and 2.6 nM, respectively. For the same molecule, the koff turned out to be 0.00107 s⁻¹ with mouse serum albumin [1], 0.000507 s⁻¹ with human serum albumin and 0.000422 s⁻¹ with cynomolgus serum albumin. In addition, in the assay with mouse serum albumin [2], the “Ratio of MSA-KD to HSA-KD” value is 1.37.

B3: CNG-HSA-118 (VHH)
VHH: KVQLVESGGGLVQPGNSLRLSCAASGFTFSSFGMSWVRQAPGKGLEWVSSISGGGSDTLYADSVRGRFTISRDNSKNTLYLQMNSLRAEDTAVYYCTIGGSLRASSQGTLVTVSS
As for B3, the values for the Kd in the assay with mouse serum albumin [1], with human serum albumin and with cynomolgus serum albumin were 12 nM, 9.36 nM and 6.65 nM, respectively. Moreover, the figures for the koff with mouse serum albumin [1], with human serum albumin and in the assay with cynomolgus serum albumin were 0.00274 s⁻¹, 0.0013 s⁻¹ and 0.00102 s⁻¹, respectively. Besides, the “Ratio of MSA-KD to HSA-KD” value in the assay with mouse serum albumin [2] was determined as 1.28.

B4: CNG-HSA-119 (VHH)
VHH: KVQLVESGGGLVQPGNSLRLSCAASGFTFSSFGMSWVRQAPGKGLEWVSSISGSGSDALYADSAKGRFTISRDNAKTTLYLQMNSLRAEDTAVYYCTIGGSLSPSSQGTLVTVSS
B4: the values for the Kd with mouse serum albumin [1], in the assay with human serum albumin and in the assay with cynomolgus serum albumin were 41.1 nM, 7.36 nM and 5.73 nM, respectively. The koff came out at 0.00854 s⁻¹ with mouse serum albumin [1], 0.00109 s⁻¹ with human serum albumin and 0.000864 s⁻¹ with cynomolgus serum albumin. Besides, the “Ratio of MSA-KD to HSA-KD” value in the assay with mouse serum albumin [2] came out at 5.59.

B5: CNG-HSA-115 (VHH)
VHH: KVQLVESGGGLVQPGNSLRLSCAASGFTFSSFGMGWVRQAPGKGLEWVSSISGSGSDTLYAPSVKGRFTISRDNSKNTLYLQMNSLRPEDTAVYYCTFAGSLSRSSQGTLVTVSS
For B5, the equilibrium dissociation constant (Kd) with mouse serum albumin [1] turned out to be 6.43 nM; in the assay with human serum albumin it was 2.96 nM; with cynomolgus serum albumin it was 3.37 nM. Besides, the koff in the assay with mouse serum albumin [1] worked out at 0.00132 s⁻¹; in the assay with human serum albumin it was 0.000441 s⁻¹; with cynomolgus serum albumin, 0.000618 s⁻¹. Also, the “Ratio of MSA-KD to HSA-KD” value with mouse serum albumin [2] was 2.17.

B6: CNG-CD19-703 (antibody, V domains shown)
VH: QVQLQESGPGLVKPSQTLSLTCTVSGGSISTSTMGVGWIRQHPGKGLEWIGFIWWDDDKRYNPNLKSRVTMSVDTSKNQFSLKLSSVTAADTAVYYCARMELWSYYFEYWGQGTLVTVSS
VL: EIVLTQSPATLSLSPGERATLSCSASSSVSYMHWYQQKPGQAPRLLIYDTSKLASGIPARFSGSGSGTDFTLTISSLEPEDFAVYYCFQGSVYPFTFGQGTKLEIK
notes: tested as IgG produced in yeast
Turning to B6, the “Binding to Cells Expressing Human CD19 (FOB)” value (shortened to “Binding”) with human CD19 on CHO cells came out at 135 FOB. In the assay with human CD19, this molecule displayed a Kd of 0.289 nM and a koff of 8.19e-05 s⁻¹.

B7: CNG-CD19-704 (antibody, V domains shown)
VH: QVQLQESGPGLVKPSQTLSLTCTVSGGSIASGMGVGWIRQHPGKGLEWIGHIWWDDDKRYNPALKSRVTISVDTSKNQFSLKLSSVTAADTAVYYCARMELWSYYFDGWGQGTLVTVSS
VL: EIVLTQSPATLSLSPGERATLSCSASSSVSYMHWYQQKPGQAPRLLIYDTSKLASGIPARFSGSGSGTDFTLTISSLEPEDFAVYYCFQGSVYPFTFGQGTKLEIK
notes: as for B6
Turning to B7, the “Binding” value in the assay with human CD19 on CHO cells is 140 FOB. In the assay with human CD19, the Kd amounted to 0.367 nM and the koff was found to be 0.000101 s⁻¹.

B8: CNG-CD19-706 (antibody, V domains shown)
VH: QVQLQESGPGLVKPSQTLSLTCTVSGGSIASGMGVSWIRQHPGKGLEWIGHIWWDDDKRYNPALKSRVTISVDTSKNQFSLKLSSVTAADTAVYYCARMELWSYYFDPWGQGTLVTVSS
VL: EIVLTQSPATLSLSPGERATLSCSASSSVGYMHWYQQKPGQAPRLLIYDTSKLASGIPARFSGSGSGTDFTLTISSLEPEDFAVYYCFQGSVYPFTFGQGTKLEIK
notes: as for B6
For the molecule B8, the “Binding” value with human CD19 on CHO cells was 241 FOB. Moreover, in the assay with human CD19, binding was put at a Kd of 0.0859 nM and the koff amounted to 4e-05 s⁻¹.

B9: CNG-CD19-705 (antibody, V domains shown)
VH: QVQLQESGPGLVKPSQTLSLTCTVSGGSISTSGMGVGWIRQHPGKGLEWIGHIWWDDDKRYNPALKSRVTISVDTSKNQFSLKLSSVTAADTAVYYCARMELWSYYFDYWGQGTLVTVSS
VL: EIVLTQSPATLSLSPGERATLSCSASSSVGYMHWYQQKPGQAPRLLIYDTSSLASGIPARFSGSGSGTDFTLTISSLEPEDFAVYYCFQGSVYPFTFGQGTKLEIK
notes: as for B6
In the case of B9, the “Binding” value with human CD19 on CHO cells was determined as 105 FOB. Also, in the assay with human CD19, the dissociation constant Kd came to 0.248 nM and the koff worked out at 4.7e-05 s⁻¹.

B10: CNG-CD19-710 (antibody, V domains shown)
VH: QVQLQESGPGLVKPSQTLSLTCTVSGVSISTSSMGVGWIRQHPGKGLEWIGHAWWDDDKRYNPALKSRVTISVDTSKNQFSLKLSSVTAADTAVYYCARMELWSYYFDPWGQGTLVTVSS
VL: EIVLTQSPATLSLSPGERATLSCSASSSFSYMHWYQQKPGQAPRLLIYDTSKLASGIPARFSGSGSGTDFTLTISSLEPEDFAVYYCFQGSVYPFTFGQGTKLEIK
notes: as for B6
Turning to B10, in the assay with human CD19 on CHO cells, the “Binding” value was found to be 153 FOB. In the assay with human CD19, this molecule had a Kd of 0.135 nM and a koff of 4e-05 s⁻¹.

B11: CNG-CD19-709 (antibody, V domains shown)
VH: QVQLQESGPGLVKPSQTLSLTCTVSGGSISTSTMGVGWIRQHPGKGLEWIGFIWWDDDKRYNPNLKSRVTMSVDTSKNQFSLKLSSVTAADTAVYYCARMELWSYYFDPWGQGTLVTVSS
VL: EIVLTQSPATLSLSPGERATLSCSASSSVGYMHWYQQKPGQAPRLLIYDTSKLAFGIPARFSGSGSGTDFTLTISSLEPEDFAVYYCFQGSVYPFTFGQGTKLEIK
notes: as for B6
In the case of B11, the “Binding” value in the assay with human CD19 on CHO cells is 234 FOB. Besides, in the assay with human CD19, binding was characterised by a dissociation constant (Kd) of 0.107 nM and the koff turned out to be 4.6e-05 s⁻¹.

B12: CNG-CD19-708 (antibody, V domains shown)
VH: QVQLQESGPGLVKPSQTLSLTCTVSGGSISTSTMGVGWIRQHPGKGLEWIGFIWWDDDKRYNPNLKSRVTMSVDTSKNQFSLKLSSVTAADTAVYYCARMELWSYYFDPWGQGTLVTVSS
VL: EIVLTQSPATLSLSPGERATLSCSASSSVGYMHWYQQKPGQAPRLLIYDTSKLSSGIPARFSGSGSGTDFTLTISSLEPEDFAVYYCFQGSVYPFTFGQGTKLEIK
notes: as for B6
For the molecule B12, the “Binding” value with human CD19 on CHO cells was determined as 210 FOB. In addition, in the assay with human CD19, the Kd worked out at 0.156 nM and the koff was 6.69e-05 s⁻¹.

B13: CNG-CD19-707 (antibody, V domains shown)
VH: QVQLQESGPGLVKPSQTLSLTCTVSGGSISTSTMGVGWIRQHPGKGLEWIGFIWWDDDKRYNPNLKSRVTMSVDTSKNQFSLKLSSVTAADTAVYYCARMELWSYYFDPWGQGTLVTVSS
VL: EIVLTQSPATLSLSPGERATLSCSASSSVGYMHWYQQKPGQAPRLLIYDTSKLASGIPARFSGSGSGTDFTLTISSLEPEDFAVYYCFQGSVYPFTFGQGTKLEIK
notes: as for B6
For the molecule B13, the “Binding” value in the assay with human CD19 on CHO cells worked out at 237 FOB. In the assay with human CD19, the Kd worked out at 0.104 nM and the koff is 4.66e-05 s⁻¹.
